This data set concerns the molecule itself. The data set can be described thus: cryo-EM structure.

B1: Shaker-IR-I384R (Shaker zH4 K+ channel with fast inactivation removed, Δ6-46, with the I384R mutation) (natural protein, UniProt P08510 1-655, looked up)
chain: MAAVALREQQLQRNSLDGYGSLPKLSSQDEEGGAGHGFGGGPQHFEPIPHDHDFCERVVINVSGLRFETQLRTLNQFPDTLLGDPARRLRYFDPLRNEYFFDRSRPSFDAILYYYQSGGRLRRPVNVPLDVFSEEIKFYELGDQAINKFREDEGFIKEEERPLPDNEKQRKVWLLFEYPESSQAARVVAIISVFVILLSIVIFCLETLPEFKHYKVFNTTTNGTKIEEDEVPDITDPFFLIETLCIIWFTFELTVRFLACPNKLNFCRDVMNVIDIIAIIPYFITLATVVAEEEDTLNLPKAPVSPQDKSSNQAMSLAILRVIRLVRVFRIFKLSRHSKGLQRLGRTLKASMRELGLLIFFLFIGVVLFSSAVYFAEAGSENSFFKSIPDAFWWAVVTMTTVGYGDMTPVGVWGKIVGSLCAIAGVLTIALPVPVIVSNFNYFYHRETDQEEMQSQNFNHVTSCPYLPGTLGQHMKKSSLSESSSDMMDLDDGVESTPGLTETHPGRSAVAPFLGAQQQQQQPVASSLSMSIDKQLQHPLQQLTQTQLYQQQQQQQQQQQNGFKQQQQQTQQQLQQQQSHTINASAAAATSGSGSSGLTMRHNNALAVSIETDV
In general, stoichiometry N refers to a count of units in the complex or per binding partner. As for B1, the “stoichiometry N” value is 4.

Source of the values: PMC12630689 (Nature Communications, 2025).
